Measured values: PMC8317952
Where “and” joins values, the source holds several entries; their conditions need not be identical. Identical values can stand only once.

Experiments:
[1] = substrate: CCCCCCCCCCCCCCOS(=O)(=O)O; assay: Steady-state NADPH oxidation; type: biochemical, Bacillus megaterium; conditions: other: rates of NADPH oxidation, 23 °C, pH 7.4
[2] = substrate: CCCCCCCCCCCCCCCC(=O)O; assay: Steady-state NADPH oxidation; type: biochemical, Bacillus megaterium; conditions: other: rates of NADPH oxidation, hyperbolic fit, 23 °C, pH 7.4

B1: P450BM-3 (Priestia megaterium NBRC 15308 = ATCC 14581) (protein)
chain: MTIKEMPQPKTFGELKNLPLLNTDKPVQALMKIADELGEIFKFEAPGRVTRYLSSQRLIKEACDESRFDKNLSQALKFVRDFAGDGLFTSWTHEKNWKKAHNILLPSFSQQAMKGYHAMMVDIAVQLVQKWERLNADEHIEVPEDMTRLTLDTIGLCGFNYRFNSFYRDQPHPFITSMVRALDEAMNKLQRANPDDPAYDENKRQFQEDIKVMNDLVDKIIADRKASGEQSDDLLTHMLNGKDPETGEPLDDENIRYQIITFLIAGHETTSGLLSFALYFLVKNPHVLQKAAEEAARVLVDPVPSYKQVKQLKYVGMVLNEALRLWPTAPAFSLYAKEDTVLGGEYPLEKGDELMVLIPQLHRDKTIWGDDVEEFRPERFENPSAIPQHAFKPFGNGQRACIGQQFALHEATLVLGMMLKHFDFEDHTNYELDIKETLTLKPEGFVVKAKSKKIPLGGIPSPSTEQSAKKVRKKAENAHNTPLLVLYGSNMGTAEGTARDLADIAMSKGFAPQVATLDSHAGNLPREGAVLIVTASYNGHPPDNAKQFVDWLDQASADEVKGVRYSVFGCGDKNWATTYQKVPAFIDETLAAKGAENIADRGEADASDDFEGTYEEWREHMWSDVAAYFNLDIENSEDNKSTLSLQFVDSAADMPLAKMHGAFSTNVVASKELQQPGSARSTRHLEIELPKEASYQEGDHLGVIPRNYEGIVNRVTARFGLDASQQIRLEAEEEKLAHLPLAKTVSVEELLQYVELQDPVTRTQLRAMAAKTVCPPHKVELEALLEKQAYKEQVLAKRLTMLELLEKYPACEMKFSEFIALLPSIRPRYYSISSSPRVDEKQASITVSVVSGEAWSGYGEYKGIASNYLAELQEGDTITCFISTPQSEFTLPKDPETPLIMVGPGTGVAPFRGFVQARKQLKEQGQSLGEAHLYFGCRSPHEDYLYQEELENAQSEGIITLHTAFSRMPNQPKTYVQHVMEQDGKKLIELLDQGAHFYICGDGSQMAPAVEATLMKSYADVHQVSEADARLWLQQLEEKGRYAKDVWAG
[1]
  kcat/Km: 7.7e+06 M⁻¹ s⁻¹ and 3e+06 M⁻¹ s⁻¹
[1]; hyperbolic fit
  Km: 4.2 ± 0.6 µM
  kcat: 32.33 s⁻¹
  kcat/Km: 7.67e+06 ± 1e+06 M⁻¹ s⁻¹
[2]
  Km: 67 ± 8 µM
